Like-named read-outs stand apart in the source and are kept apart here.
Experiments:
recombinant human IL-12 [1] = target: T1, recombinant human IL-12 (human, UniProt P29459 23-219; P29460 23-328); assay: Biacore
T1 chain 1: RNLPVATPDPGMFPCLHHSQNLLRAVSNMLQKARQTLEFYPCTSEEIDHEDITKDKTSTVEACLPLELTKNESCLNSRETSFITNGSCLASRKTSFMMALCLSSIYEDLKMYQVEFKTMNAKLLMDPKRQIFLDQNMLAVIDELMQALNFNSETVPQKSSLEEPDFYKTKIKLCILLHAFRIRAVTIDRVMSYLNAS
T1 chain 2: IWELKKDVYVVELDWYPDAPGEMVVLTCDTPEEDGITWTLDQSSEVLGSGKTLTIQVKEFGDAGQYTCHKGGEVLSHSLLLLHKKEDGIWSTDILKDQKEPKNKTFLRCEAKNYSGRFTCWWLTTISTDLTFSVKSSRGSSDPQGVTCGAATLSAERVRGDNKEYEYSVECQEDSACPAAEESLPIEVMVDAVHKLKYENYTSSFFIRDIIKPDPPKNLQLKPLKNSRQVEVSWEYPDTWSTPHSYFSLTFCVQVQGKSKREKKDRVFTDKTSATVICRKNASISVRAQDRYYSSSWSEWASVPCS

[2] = target: T2, recombinant human IL-23 (p19/p40) (human, UniProt Q9NPF7 20-189; P29460 23-328); assay: alpha-screen hIL-23/hIL-23R; Fig 7
T2 chain 1: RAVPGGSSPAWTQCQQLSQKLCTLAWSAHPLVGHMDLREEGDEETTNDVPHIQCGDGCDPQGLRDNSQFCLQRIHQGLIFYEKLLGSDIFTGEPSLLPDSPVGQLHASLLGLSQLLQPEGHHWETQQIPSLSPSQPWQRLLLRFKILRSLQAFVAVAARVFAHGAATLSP
T2 chain 2: T1 chain 2

[3] = target: T2, recombinant human IL-23 (p19/p40); assay: Biacore; eBiosc hIL23
recombinant human IL-12 [4] = target: T1, recombinant human IL-12; assay: Biacore
[5] = target: T2, recombinant human IL-23 (p19/p40); assay: alpha-screen hIL-23/hIL-23R; Fig 6

B1: P23IL3C1 (VHH)
VHH: EVQLVESGGGSVQAGGSLRLSCKVSGIMFSDKGMGWFRQAPGKERETVAATNWSGGSTYYADSVKGRFTISRDNYKNTLHLQMASLKPEDTGIYYCAAAGDSWNSRRIEDYDYWGQGTPVTVSS
koff (recombinant human IL-12 [1]): 0.000279 s⁻¹

B2: 119A3-119G7 (antibody)
chain: EVQLVESGGGLVQAGGSLRLSCAASGRIFSLPASGNIFNLLTIAWHRQAPGMQRELVATINSGSRTNYADSVKGRFTISRDNAQKTVYLQMNNLKPEDTAVYYCQTSGSGSPNFWGQGTQVTVSSGGGGSGGGGSGGGGSGGGGSGGGGSGGGGSGGGGSEVQLVESGGGLVQAGGSLTLSCAVSGLTFNNYAMGWFRQVPGKEREFVAAISRSGLRTFYSDSVKGRFTISRDSAKSTVYVQMNNLKPEDTAVYFCAADRRTYYSEGPSLTDTLRYDYWGQGTQVTVSS
IC50 [2]: 0.132 nM

B3: P23IL81A12 (VHH)
VHH: EVQLVESGGGLVQAGGSLRLSCAASGRTLSSYAMGWFRQAPGKEREFVARISQGGTAIYYADSVKGRFTISRDNAKNTVYLQMNSLKPEDTAVYYCAKDPSPYYRGSAYLLSGSYDSWGQGTQVTVSS
koff [3]: 0.000113 s⁻¹

B4: P23IL3B8 (VHH)
VHH: EVQLVESGGGLVQPGGSLRLSCAASGFTFSSSVMFWLRQAPGKGLEWLSTIKPTGSTIYPGSGKGRFTISRDNAKNTLYLQINNLKPEDTALYYCARDIGGTVRGQGTQVTVSS
koff (recombinant human IL-12 [1]): 0.00243 s⁻¹

B5: P23IL3G10 (VHH)
VHH: EVQLVESGGGVVQAGESLRLSCAASGYNVKDYEMGWFRQAPGMEREFAAAISWRGSSTYYADSVKGRFTISRDNAKNTVYLQMSSLKPEDTAVYYCAAGRLYPSSRSRDYDYWGQGTQVTVSS
koff (recombinant human IL-12 [1]): 0.00244 s⁻¹

B6: P23IL119G7 (VHH)
VHH: EVQLVESGGGLVQAGGSLTLSCAVSGLTFNNYAMGWFRQVPGKEREFVAAISRSGLRTFYSDSVKGRFTISRDSAKSTVYVQMNNLKPEDTAVYFCAADRRTYYSEGPSLTDTLRYDYWGQGTQVTVSS
koff [3]: 0.000479 s⁻¹

B7: P23IL81E10 (VHH)
VHH: EVQLVESGGGLVQAGGSLRLSCVASGRTFNTYGMGWFRQAPGKEREFVAANNWSGGATSYADSVKGRFTISRDNAKNTVFLQMNTLKPEDTAVYYCAAADRGGGWLVVRENDYDYWGQGTQVTVSS
koff (recombinant human IL-12 [1]): 0.00266 s⁻¹
koff (recombinant human IL-12 [4]): 0.00266 s⁻¹

B8: P23IL-121A2 (VHH)
VHH: EVQLVESGGGLVQAGGSLRLSCAASGSIFNFNYMGWFRQAPGKEREFVAAIRWSGSSTYYADSVKGRFTISRDDAKNTVALQMNSLKPEDTAIYYCALRKGIPYSTSDRVIKGVNDYDYWGQGTQVTVSS
IC50 [5]: 0.299 nM
IC50 [2]: 0.27 nM

B9: P23IL81G2 (VHH)
VHH: EVQLVESGGGLVQPGGSLRLSCIASGLPFSTKSMGWFRQAPGKEREFVARISPGGTSRYYGDFVKGRFAISRDNAKNTTWLQMNSLKAEDTAVYYCASGERSTYIGSNYYRTNEYDYWGTGTQVTVSS
koff [3]: 0.000257 s⁻¹

B10: 121A2-119G7 (antibody)
chain: EVQLVESGGGLVQAGGSLRLSCAASGSIFNFNYMGWFRQAPGKEREFVAAIRWSGSSTYYADSVKGRFTISRDDAKNTVALQMNSLKPEDTAIYYCALRKGIPYSTSDRVIKGVNDYDYWGQGTQVTVSSGGGGSGGGGSGGGGSGGGGSGGGGSGGGGSGGGGSEVQLVESGGGLVQAGGSLTLSCAVSGLTFNNYAMGWFRQVPGKEREFVAAISRSGLRTFYSDSVKGRFTISRDSAKSTVYVQMNNLKPEDTAVYFCAADRRTYYSEGPSLTDTLRYDYWGQGTQVTVSS
IC50 [5]: 0.131 nM

B11: P23IL 3F11 (VHH)
VHH: EVQLVESGGGLVQAGGSLRLSCAASGSIFSINAMGWFRQAPGKERQFVAAINWSTGSTYYSDSVKGRFTISRDNAKNTVYLQMNSLKPEDTAVYFCASGYLFPSSRGSQYDYWGQGTQVTVSS
koff (recombinant human IL-12 [1]): 0.00134 s⁻¹

B12: P23IL119A3 (VHH)
VHH: EVQLVESGGGLVQAGGSLRLSCAASGRIFSLPASGNIFNLLTIAWHRQAPGMQRELVATINSGSRTNYADSVKGRFTISRDNAQKTVYLQMNNLKPEDTAVYYCQTSGSGSPNFWGQGTQVTVSS
IC50 [2]: 0.67 nM

From patent US20110053865A1 (published 2011)
